Measurements as given in US20170355769A1 (AbbVie / Abbott, published 2017).
Residue numbers refer to the chain shown, from its start. Where two headings read alike, the source gives them in different places.

Experiments:
[1] = biological target: T1, Human B7-H3-ECD (His tag) (human, UniProt Q5ZPR3 29-461); experiment: SPR Biacore, naked mAb
T1 construct: SPR analyte; also called huB7-H3; soluble ECD of human B7-H3
T1 sequence: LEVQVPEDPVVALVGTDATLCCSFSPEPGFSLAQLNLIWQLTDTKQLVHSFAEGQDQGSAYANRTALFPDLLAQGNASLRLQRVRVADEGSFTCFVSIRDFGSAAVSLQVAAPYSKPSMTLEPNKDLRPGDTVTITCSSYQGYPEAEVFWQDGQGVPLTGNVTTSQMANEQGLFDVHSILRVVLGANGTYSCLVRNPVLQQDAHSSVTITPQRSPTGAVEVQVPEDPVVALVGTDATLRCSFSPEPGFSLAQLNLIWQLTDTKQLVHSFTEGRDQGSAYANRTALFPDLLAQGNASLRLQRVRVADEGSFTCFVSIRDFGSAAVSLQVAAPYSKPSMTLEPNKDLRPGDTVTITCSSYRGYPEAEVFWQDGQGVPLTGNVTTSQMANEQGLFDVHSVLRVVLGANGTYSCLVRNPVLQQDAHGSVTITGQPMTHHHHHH
Text: (§1) Biacore T200 SPR instruments were used to measure the binding kinetics of human B7-H3 (analyte) binding to various mAbs (ligands). The assay format was Fc-based capture via immobilized anti-mouse (Fc) (Pierce 31170) or immobilized anti-human (Fc) (Pierce 31125). A standard amine coupling protocol was employed to immobilize the capture reagents via primary amines to the carboxy-methyl (CM) dextran surface of CM5 sensorchips (Biacore); capture antibodies were coupled to a level of approximately 5000RU. For binding kinetic measurements the assay buffer was HBS-EP+ (Biacore): 10 mM Hepes, pH7.4, 150 mM NaCl, 3 mM EDTA, 0.05% polysorbate 20. During the assay, all measurements were referenced against the capture surface alone. Each assay cycle consisted of the following steps: 1) Capture of ligand to approximately 50RU; 2) Analyte injection over both reference and test surface, 240 μL at 80 μL/min, after which the dissociation was monitored for 900 seconds at 80 μL/min; 3) Regeneration of capture surface with low pH glycine. […] Data were processed and fit to a 1:1 binding model using Biacore T200 Evaluation Software to determine the binding kinetic rate constants, kₐ (on-rate) and kd (off-rate), and the equilibrium dissociation constant (affinity, KD).

[2] = biological target: T1, Human B7-H3-ECD (His tag); experiment: SPR Biacore, naked mAb; remark: listed apart in the source
Text: as §1
These variants were further characterized for binding by SPR and as ADCs conjugated to the Bcl-xL inhibitor synthon (linker warhead) CZ. […] An ADC comprising chAb3 conjugated to synthon CZ was used as a control.

[3] = biological target: T2, Human full length B7-H3 (human, UniProt Q5ZPR3 29-534); experiment: FACS, NCI-H1650 cells
T2 construct: On 3T12 fibroblasts expressing full length human B7-H3 or on NCI-H1650 cells; signal peptide residues 1-28 stated; also called huB7-H3; CD276
T2 sequence: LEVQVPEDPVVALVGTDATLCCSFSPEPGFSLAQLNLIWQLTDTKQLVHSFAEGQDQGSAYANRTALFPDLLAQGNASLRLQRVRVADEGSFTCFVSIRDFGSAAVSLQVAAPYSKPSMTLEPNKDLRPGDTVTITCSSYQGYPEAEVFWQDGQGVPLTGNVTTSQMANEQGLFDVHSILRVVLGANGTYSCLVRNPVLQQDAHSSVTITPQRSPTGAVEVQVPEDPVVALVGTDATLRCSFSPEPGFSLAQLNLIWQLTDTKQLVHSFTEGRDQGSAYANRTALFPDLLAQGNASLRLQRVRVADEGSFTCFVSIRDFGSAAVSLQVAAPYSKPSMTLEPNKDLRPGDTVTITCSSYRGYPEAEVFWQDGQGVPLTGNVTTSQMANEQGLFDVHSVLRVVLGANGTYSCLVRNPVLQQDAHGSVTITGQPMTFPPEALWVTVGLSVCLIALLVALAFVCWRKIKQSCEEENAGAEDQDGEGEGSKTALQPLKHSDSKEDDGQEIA
Description: To generate purified chimeric antibodies, expression vectors were transiently transfected into HEK293 6E suspension cell cultures in a ratio of 60% to 40% light to heavy chain construct. 1 mg/ml of polyethylenimine (PEI) or 2.6 μL/mL of Expifectamine was used to transfect the cells. Cell supernatants were harvested after five days in shaking flasks, spun down to pellet cells, and filtered through 0.22 μm filters to separate IgG from culture contaminants. Antibody-containing supernatants were purified on Akta Pure using protein A mAb SelectSure. Columns were equilibrated in PBS pH 7.4, supernatants were then passed through the column and a wash was performed with PBS pH 7.4. IgG were eluted with 0.1 M acetic acid pH 3.5 and collected in several aliquots. Fractions containing IgG were pooled and dialyzed in PBS overnight at 4° C.
(§2) Cells were harvested from flasks when approximately 80% confluent using Gibco® Cell Dissociation Buffer. Cells were washed once in PBS/1% FBS (FACS buffer) then resuspended at 2.5×10⁶ cells/mL in FACS buffer. 100 μL of cells/well were added to a round bottom 96-well plate. 10 μL of a 10× concentration of mAb/ADC (final concentrations are indicated the figures). Wells were washed twice with FACS buffer and resuspended in 50 μL of secondary Ab (AlexaFluor 488) diluted in FACS buffer. The plate was incubated at 4° C. for one hour and washed twice with FACS buffer. Cells were resuspended in 100 μL of PBS/1% formaldehyde and analyzed on a Becton Dickinson LSRII flow cytometer. Data was analyzed using WinList flow cytometry analysis software.

[4] = biological target: T1, Human B7-H3-ECD (His tag); experiment: SPR Biacore, naked mAb; remark: listed apart in the source
Text: as §1, with “KD). […]” for “KD).”

[5] = biological target: T3, Cynomolgous B7-H3 on cells (cynomolgus); experiment: FACS (Example 6 method)
T3 construct: whole, on cells; also called cyB7-H3; cyno B7-H3
Description: as §2
(§3) Nine huAb13 variants described in Examples 17 and 18 were generated and tested for binding to B7-H3 by FACS (according to methods described in Example 6).

[6] = biological target: T2, Human full length B7-H3; experiment: FACS (Example 6 method)
Description: as §2, §3

[7] = biological target: T2, Human full length B7-H3; experiment: FACS, cell surface human B7-H3 (as Example 6)
Description: as §2
Nine anti-B7-H3 chimeric antibodies were conjugated to the Bcl-xL inhibiting (Bcl-xLi) synthon CZ (Example 2.1) using conjugation Method A described below. The resulting ADCs (anti-B7-H3 antibodies conjugated to synthon CZ) were tested for binding to cell surface human B7-H3 by FACS (as described in Example 6) and for cell cytotoxicity in cell lines expressing B7-H3. […] Table 6 provides cell surface binding and cytotoxicity activity of anti-B7-H3 chimera ADCs against breast cancer cell HCC38 expressing human B7-H3.

[8] = biological target: T4, hB7-H3 (ELISA antigen of Tables 17 and 20) (human, UniProt Q5ZPR3 29-466, limits assumed); experiment: ELISA
T4 sequence: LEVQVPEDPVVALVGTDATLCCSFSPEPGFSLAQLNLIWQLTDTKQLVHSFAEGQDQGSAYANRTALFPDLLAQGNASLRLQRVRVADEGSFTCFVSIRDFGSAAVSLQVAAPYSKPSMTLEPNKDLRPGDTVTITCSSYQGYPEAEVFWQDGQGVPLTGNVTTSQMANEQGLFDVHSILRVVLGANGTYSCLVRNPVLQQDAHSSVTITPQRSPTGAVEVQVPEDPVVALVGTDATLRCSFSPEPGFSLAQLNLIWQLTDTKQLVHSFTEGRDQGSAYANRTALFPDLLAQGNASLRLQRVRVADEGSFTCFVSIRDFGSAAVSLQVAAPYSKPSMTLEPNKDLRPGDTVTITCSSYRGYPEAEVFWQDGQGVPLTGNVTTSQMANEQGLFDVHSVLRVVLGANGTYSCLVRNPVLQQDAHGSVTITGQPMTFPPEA

[9] = biological target: T2, Human full length B7-H3; experiment: cell-based or functional assay

B1: huAb3v2 (antibody, V domains shown)
VH: EVQLVQSGAEVKKPGSSVKVSCKASGYTFSSYWMHWVRQAPGQGLEWIGLIHPDSGSTNYNEMFKNRATLTVDRSTSTAYMELSSLRSEDTAVYYCAGGGRLYFDYWGQGTTVTVSS
VL: DIVMTQSPLSLPVTPGEPASISCRSSQSLVHSNGDTYLRWYLQKPGQSPQLLIYKVSNRFSGVPDRFSGSGSGTDFTLKISRVEAEDVGVYYCSQSTHVPYTFGGGTKVEIK
notes: humanized IgG
- Kd [1]: 2.3 nM
- Kd [2]: 0.69 nM

B2: chAb13 (antibody, IgG1, V domains shown)
VH: DVQLQESGPDLVKPSQSLSLTCTVTGYSITSGYSWHWIRQFPGNKLEWMGYIHSSGSTNYNPSLKSRISINRDTSKNQFFLQLNSVTTEDTATYYCAGYDDYFEYWGQGTTLTVSS
VL: DIVMTQSQKFMSTSVGDRVSVTCKASQNVGFNVAWYQQKPGQSPKALIYSASYRYSGVPDRFTGSGSGTDFTLTISNVQSEDLAEYFCQQYNSYPFTFGSGTKLEIK
notes: chimeric, huIgG1/k
- EC50 [3]: 1.53 nM
- Kd [4]: 5.7 nM

B3: chAb13-CZ (antibody, IgG1, V domains shown)
VH: B2 VH
VL: B2 VL
modifications: synthon CZ on reduced interchain Cys
- EC50 [5]: 18.4 nM
- EC50 [6]: 6.27 nM
- EC50 [7]: 1.49 nM
- EC50 [8]: 0.26 nM

B4: huAb13v1-CZ (antibody, human IgG1, kappa, L234A L235A, V domains shown)
VH: EVQLQESGPGLVKPSETLSLTCAVTGYSITSGYSWHWIRQFPGNGLEWMGYIHSSGSTNYNPSLKSRISISRDTSKNQFFLKLSSVTAADTAVYYCAGYDDYFEYWGQGTTVTVSS
VL: DIQMTQSPSSLSASVGDRVTITCKASQNVGFNVAWYQQKPGKSPKALIYSASYRYSGVPSRFSGSGSGTDFTLTISSLQPEDFAEYFCQQYNWYPFTFGQGTKLEIKR
modifications: synthon CZ on reduced interchain Cys
notes: ADC, DAR 4.0
- EC50 nM H1650 (tumor cell cytotoxicity) [9]: 0.18 nM
- EC50 [5]: 10 nM
- EC50 [8]: 0.12 nM

B5: huAb13v6-CZ (antibody, V domains shown)
VH: B4 VH
VL: DIQMTQSPSSLSASVGDRVTITCKASQNVGFNVAWYQQKPGKAPKLLIYSASYRYSGVPSRFSGSGSGTDFTLTISSLQPEDFATYFCQQYNWYPFTFGQGTKLEIK
modifications: synthon CZ on reduced interchain Cys
notes: ADC, DAR 3.6
- EC50 [5]: 12.9 nM
- EC50 [6]: 5.83 nM
- EC50 [8]: 0.14 nM

B6: huAb13v5-CZ (antibody, V domains shown)
VH: B4 VH
VL: B5 VL with F87Y
modifications: synthon CZ on reduced interchain Cys
notes: ADC, DAR 3.4
- EC50 [5]: 10.6 nM
- EC50 [6]: 5.21 nM
- EC50 [8]: 0.19 nM
